From publication PMC5692578

Target: Mcm2-7 hexamer (S. cerevisiae) (UniProt P29469)
Assay: cryo-EM structure

stoichiometry N: 2 hexamers
Substance: Mcm2-7 hexamer, P29469;P24279;P30665;P29496;P53091;P38132
